Measured values taken from paper PMC5340040.
No end group written: not given here.

How the values were obtained:
[1] = target: T1, CaATP-G-actin (rabbit skeletal muscle actin, monomer) (rabbit), P68135; assay: cross-linking; bacterial transglutaminase (0.3-0.4 mg/ml) at 22 °C, 4 μM CaATP-G-actin or TG-G-actin with 4-8 μM peptide, 1 to 30 min, stopped by 1 mM cysteamine; 12% SDS-PAGE, Coomassie blue or fluorescence, densitometry; one series with 0-200 mM NaCl (1 min); conditions: remark: other sources report otherwise
[2] = target: T1, CaATP-G-actin (rabbit skeletal muscle …); assay: cross-linking; competition: 6 μM Fl-LL-37 and 0-16 μM histatin-3 or histatin-5 for transglutaminase cross-linking to 4 μM CaATP-G-actin, 22 °C; SDS-PAGE visualized by fluorescence; conditions: remark: other sources report otherwise

| Binder | percent decrease of the extent of cross-linking with 200 mM NaCl [1] [%] | percent decrease of the cross-linking of 6 μM Fl-LL-37 to 4 μM G-actin at 3 μM histatin [2] [%] |
| --- | --- | --- |
| DSHAKRHHGYKRKFHEKHHSHRGY (also: FAM label, position not given here) [FAM labeled histatin-5] | > 70 |  |
| DSHAKRHHGYKRKFHEKHHSHRGY [Histatin-5] |  | 68 |
